# In publication PMC2885149:
# Target: adeno-associated virus serotype 3B (AAV-3B) capsid protein subunit (adeno-associated virus serotype 3B)
# Assay: crystal structure
substance,measurement,value
adeno-associated virus serotype 3B (AAV-3B) capsid protein subunit (natural protein),stoichiometry N,60
